Reference: the RNAGym collection of RNA variant scans (doi:10.1093/molbev/msab373)

B1: Azoarcus group I ribozyme (parent)
chain: GUGCCUUGCGCCGGGAAACCACGCAAGGGAUGGUGUCAAAUUCGGCGAAACCUAAGCGCCCGCCCGGGCGUAUGGCAACGCCGAGCCAAGCUUCGGCGCCUGCGCCGAUGAAGGUGUAGAGACUAGACGGCACCCACCUAAGGCAAACGCUAUGGUGAAGGCAUAGUCCAGGGAGUGGCGAAAGUCACACAAACCGG

Variants of: B1
Assay: reverse-splicing fitness (ratio to wild type); higher = more active; in vitro selection; Mg2+ level not given
Outline: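 An in vitro group I ribozyme library with randomized positions was T7-transcribed and gel-purified. In triplicate, 10 pmol RNA in EPPS pH 7.5 was reacted with 50 pmoles of a 30-nt RNA substrate for 1 h at 37 °C across several added MgCl2 levels (1–48 mM), then stopped with EDTA. Products were reverse transcribed from a substrate-complementary primer, PCR-amplified and sequenced (HiSeq 4000). Fitness is a variant's read proportion after selection over that before, normalised to wild type.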

Variant | reverse-splicing fitness
C82G A111U A145U C150U C169A U176C | 0.0125
C82G A111U A145U C150U C169A U176G | 0.00678
C82G A111U A145U C150U C169G | 0.00884
C82G A111U A145U C150U C169G U176A | 0.0132
C82G A111U A145U C150U C169G U176C | 0.0142
C82G A111U A145U C150U C169G U176G | 0.00659
C82G A111U A145U C150U C169U | 0.0113
C82G A111U A145U C150U C169U U176A | 0.0142
C82G A111U A145U C150U C169U U176C | 0.0136
C82G A111U A145U C150U C169U U176G | 0.00609
C82G A111U A145U C150U U176A | 0.124
C82G A111U A145U C150U U176C | 0.152
C82G A111U A145U C150U U176G | 0.043
C82G A111U A145U C169A | 0.00754
C82G A111U A145U C169A U176A | 0.0121
C82G A111U A145U C169A U176C | 0.011
C82G A111U A145U C169A U176G | 0.00626
C82G A111U A145U C169G | 0.00896
C82G A111U A145U C169G U176A | 0.0122
C82G A111U A145U C169G U176C | 0.0128
C82G A111U A145U C169G U176G | 0.00618

Variant | reverse-splicing fitness
C82G A111U A145U C169U | 0.0113
C82G A111U A145U C169U U176A | 0.0146
C82G A111U A145U C169U U176C | 0.0128
C82G A111U A145U C169U U176G | 0.00509
C82G A111U A145U U176A | 0.211
C82G A111U A145U U176C | 0.246
C82G A111U A145U U176G | 0.0842
C82G A111U C150A | 0.0323
C82G A111U C150A C169A | 0.0114
C82G A111U C150A C169A U176A | 0.0193
C82G A111U C150A C169A U176C | 0.0206
C82G A111U C150A C169A U176G | 0.00814
C82G A111U C150A C169G | 0.00899
C82G A111U C150A C169G U176A | 0.021
C82G A111U C150A C169G U176C | 0.0229
C82G A111U C150A C169G U176G | 0.0075
C82G A111U C150A C169U | 0.0113
C82G A111U C150A C169U U176A | 0.0148
C82G A111U C150A C169U U176C | 0.0161
C82G A111U C150A C169U U176G | 0.00776
C82G A111U C150A U176A | 0.025

Variant | reverse-splicing fitness
C82G A111U C150A U176C | 0.0357
C82G A111U C150A U176G | 0.0138
C82G A111U C150G | 0.0227
C82G A111U C150G C169A | 0.0104
C82G A111U C150G C169A U176A | 0.011
C82G A111U C150G C169A U176C | 0.0132
C82G A111U C150G C169A U176G | 0.00732
C82G A111U C150G C169G | 0.00744
C82G A111U C150G C169G U176A | 0.0074
C82G A111U C150G C169G U176C | 0.00587
C82G A111U C150G C169G U176G | 0.00662
C82G A111U C150G C169U | 0.0102
C82G A111U C150G C169U U176A | 0.00863
C82G A111U C150G C169U U176C | 0.0129
C82G A111U C150G C169U U176G | 0.00728
C82G A111U C150G U176A | 0.01
C82G A111U C150G U176C | 0.0207
C82G A111U C150G U176G | 0.0043
C82G A111U C150U | 0.192
C82G A111U C150U C169A | 0.0106
C82G A111U C150U C169A U176A | 0.0188

Variant | reverse-splicing fitness
C82G A111U C150U C169A U176C | 0.0148
C82G A111U C150U C169A U176G | 0.00647
C82G A111U C150U C169G | 0.00914
C82G A111U C150U C169G U176A | 0.0149
C82G A111U C150U C169G U176C | 0.0169
C82G A111U C150U C169G U176G | 0.00689
C82G A111U C150U C169U | 0.0118
C82G A111U C150U C169U U176A | 0.014
C82G A111U C150U C169U U176C | 0.013
C82G A111U C150U C169U U176G | 0.00694
C82G A111U C150U U176A | 0.0918
C82G A111U C150U U176C | 0.131
C82G A111U C150U U176G | 0.0348
C82G A111U C169A | 0.00938
C82G A111U C169A U176A | 0.0152
C82G A111U C169A U176C | 0.0203
C82G A111U C169A U176G | 0.00627
C82G A111U C169G | 0.00946
C82G A111U C169G U176A | 0.0157
C82G A111U C169G U176C | 0.0227
C82G A111U C169G U176G | 0.00614
